Consider three molecules from publication PMC4131482, “The significance of the F variant of alpha-1-antitrypsin and unique case report of a PiFF homozygote” (BMC Pulmonary Medicine, 2014).

The target of assay [1] is proteinase 3 (UniProt P24158). The assay can be described thus: time course of enzyme inhibition (residual activity, second order association rate constant); methylamine-treated serum A1AT and PR3, equimolar, 1 nM each, 23°C, plate wells of 150 uL; residual PR3 activity at 1-5 min with the FRET substrate Abz-VAD-norV-ADRQ-EDDnp.
Assay [2] addresses proteinase 3 (UniProt P24158). Kind of assay: time course of enzyme inhibition (residual activity, second order association rate constant); purified M or Z variant A1AT and PR3, equimolar, 1 nM each, 23°C, plate wells of 150 uL; residual PR3 activity at 1-5 min with the FRET substrate Abz-VAD-norV-ADRQ-EDDnp.
For assay [3], the target named is T1, M variant alpha-1-antitrypsin (human (endogenous in serum), UniProt P01009 25-418).
T1 construct: alpha-1-antitrypsin (A1AT), normal M variant, human serum or bought pure protein; the assays tell them apart; also called M variant A1AT; pure M variant A1AT; source: endogenous, serum of healthy PiMM controls, treated with methylamine; also bought: Athens Research and Technology, pure
T1 sequence (P01009 25-418, change not shown): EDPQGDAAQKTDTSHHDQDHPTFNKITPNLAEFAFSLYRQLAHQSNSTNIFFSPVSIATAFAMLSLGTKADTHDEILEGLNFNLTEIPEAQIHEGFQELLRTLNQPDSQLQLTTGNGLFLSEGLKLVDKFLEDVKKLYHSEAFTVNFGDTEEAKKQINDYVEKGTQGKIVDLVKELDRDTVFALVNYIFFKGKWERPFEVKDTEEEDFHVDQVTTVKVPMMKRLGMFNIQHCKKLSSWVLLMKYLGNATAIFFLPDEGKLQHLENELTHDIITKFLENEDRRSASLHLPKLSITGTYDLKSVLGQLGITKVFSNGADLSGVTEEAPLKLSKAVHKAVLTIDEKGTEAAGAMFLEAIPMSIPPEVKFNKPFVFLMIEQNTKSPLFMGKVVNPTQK
The assay can be described thus: time course of enzyme inhibition (residual activity, second order association rate constant); methylamine-treated serum A1AT and PR3, equimolar, 1 nM each, 23°C, plate wells of 150 uL; residual PR3 activity at 1-5 min with the FRET substrate Abz-VAD-norV-ADRQ-EDDnp. As to conditions: one partner purified.

In assay [4] the target is T2, F variant alpha-1-antitrypsin (human (endogenous in serum), UniProt P01009 25-418, arginine at residue 223 by cysteine).
T2 construct: alpha-1-antitrypsin (A1AT), F variant, human serum; arginine at residue 223 replaced by cysteine; also called F variant A1AT; F A1AT; source: endogenous, serum of a PiFF homozygote, treated with methylamine
T2 sequence (P01009 other isoform, or with tags, fused parts or gaps with the stated changes): as the sequence (P01009 25-418, change not shown) above, with R223C counted along it
Described as above. The conditions noted are these: one partner purified.

The target of assay [5] is T1, M variant alpha-1-antitrypsin. The assay can be described thus: time course of enzyme inhibition (residual activity, second order association rate constant); purified M or Z variant A1AT and PR3, equimolar, 1 nM each, 23°C, plate wells of 150 uL; residual PR3 activity at 1-5 min with the FRET substrate Abz-VAD-norV-ADRQ-EDDnp. The conditions noted are these: both partners purified.

For orientation: kon means the second-order rate constant of association. A low value points to slow association. Take “S variant alpha-1-antitrypsin (from UniProt P01009 25-418) (natural protein)”: the kon in assay [1] is 951000 M⁻¹ s⁻¹.
On to “Z variant alpha-1-antitrypsin (from UniProt P01009 25-418) (natural protein)”, for which the kon in assay [1] was found to be 1.1e+06 M⁻¹ s⁻¹; in assay [2], 1.03e+06 M⁻¹ s⁻¹.

B1: proteinase 3 (enzyme, UniProt P24158 28-248, looked up)
chain: IVGGHEAQPHSRPYMASLQMRGNPGSHFCGGTLIHPSFVLTAAHCLRDIPQRLVNVVLGAHNVRTQEPTQQHFSVAQVFLNNYDAENKLNDVLLIQLSSPANLSASVATVQLPQQDQPVPHGTQCLAMGWGRVGAHDPPAQVLQELNVTVVTFFCRPHNICTFVPRRKAGICFGDSGGPLICDGIIQGIDSFVIWGCATRLFPDFFTRVALYVDWIRSTLR
notes: proteinase 3 (PR3), bought pure enzyme, active site titrated; also called PR3; pure PR3; source: bought: Merck, pure
As to B1, the kon in assay [3] was determined as 924000 M⁻¹ s⁻¹; in assay [4], 1.06e+06 M⁻¹ s⁻¹; in assay [5], 983000 M⁻¹ s⁻¹.
